Data reported in the supplement of paper PMC9112550, “Optimization of the antimicrobial peptide Bac7 by deep mutational scanning” (BMC Biology, 2022).

Test system: Escherichia coli TOP10
Assay: shrunken log2 fold change of peptide-encoding DNA abundance (4.5 h post-induction vs induction); higher = less antimicrobial activity (less host growth inhibition)
Conditions: time post-induction: 4.5 h; library: site-saturation at positions 5, 18, 19, 20
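Further: peptides expressed intracellularly from a pBAD plasmid library in pooled LB shake-flask culture, induced with 0.3% L-arabinose, DNA abundance read by NGS, three biological replicates, DESeq2 with apeglm shrinkage.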

| Sequence | shrunken log2 fold change |
| --- | --- |
| RRIRSRPPRLPRPRPRPWWGPRP | 0.0289 |
| RRIRMRPPRLPRPRPRPTMYPRP | 0.187 |
| RRIRCRPPRLPRPRPRPYRLPRP | -0.0743 |
| RRIRCRPPRLPRPRPRPPQMPRP | 0.0913 |
| RRIRWRPPRLPRPRPRPGYCPRP | -0.407 |
| RRIRLRPPRLPRPRPRPRGIPRP | -0.0811 |
| RRIRARPPRLPRPRPRPVKDPRP | 0.284 |
| RRIRKRPPRLPRPRPRPYTMPRP | -0.53 |
| RRIRGRPPRLPRPRPRPICSPRP | 0.122 |
| RRIRERPPRLPRPRPRPVFYPRP | -0.437 |
| RRIRMRPPRLPRPRPRPLYLPRP | -0.327 |
| RRIRVRPPRLPRPRPRPYCAPRP | -0.229 |
| RRIRFRPPRLPRPRPRPMATPRP | -0.227 |
| RRIRMRPPRLPRPRPRPHFIPRP | 0.0859 |
| RRIRNRPPRLPRPRPRPKVSPRP | 0.264 |
| RRIRLRPPRLPRPRPRPCEEPRP | -0.0266 |
| RRIRVRPPRLPRPRPRPADYPRP | 0.0436 |
| RRIRHRPPRLPRPRPRPFSTPRP | -0.304 |
| RRIRQRPPRLPRPRPRPFLEPRP | -0.155 |
| RRIRYRPPRLPRPRPRPVYLPRP | 0.00668 |
| RRIRNRPPRLPRPRPRPAKRPRP | 0.27 |
| RRIRERPPRLPRPRPRPDCTPRP | 0.104 |

| Sequence | shrunken log2 fold change |
| --- | --- |
| RRIRKRPPRLPRPRPRPKHYPRP | -0.283 |
| RRIRYRPPRLPRPRPRPWWPPRP | -0.254 |
| RRIRIRPPRLPRPRPRPWIGPRP | -0.0616 |
| RRIRERPPRLPRPRPRPEMQPRP | -0.0367 |
| RRIRNRPPRLPRPRPRPHTKPRP | -0.238 |
| RRIRNRPPRLPRPRPRPACLPRP | 0.146 |
| RRIRDRPPRLPRPRPRPYHMPRP | -0.00968 |
| RRIRIRPPRLPRPRPRPNVRPRP | 0.0422 |
| RRIRKRPPRLPRPRPRPQLSPRP | -0.272 |
| RRIRPRPPRLPRPRPRPIPWPRP | 0.00327 |
| RRIRRRPPRLPRPRPRPCNCPRP | -0.0759 |
| RRIRRRPPRLPRPRPRPCASPRP | 0.0214 |
| RRIRWRPPRLPRPRPRPIEVPRP | 0.0279 |
| RRIRARPPRLPRPRPRPKKEPRP | 0.0428 |
| RRIRVRPPRLPRPRPRPYCIPRP | -0.27 |
| RRIRDRPPRLPRPRPRPAHMPRP | -0.125 |
| RRIRERPPRLPRPRPRPDAEPRP | 0.36 |
| RRIRPRPPRLPRPRPRPCTWPRP | 0.025 |
| RRIRMRPPRLPRPRPRPTELPRP | 0.172 |
| RRIRIRPPRLPRPRPRPQCYPRP | -0.0646 |
| RRIRARPPRLPRPRPRPFHLPRP | -0.36 |
| RRIRERPPRLPRPRPRPAVSPRP | 0.0433 |

| Sequence | shrunken log2 fold change |
| --- | --- |
| RRIRRRPPRLPRPRPRPRGMPRP | 0.907 |
| RRIRMRPPRLPRPRPRPLQSPRP | 2.75 |
| RRIRPRPPRLPRPRPRPIRWPRP | -0.0338 |
| RRIRLRPPRLPRPRPRPFFFPRP | 0.343 |
| RRIRIRPPRLPRPRPRPEALPRP | 0.00934 |
| RRIRCRPPRLPRPRPRPSCSPRP | -0.482 |
| RRIRYRPPRLPRPRPRPTGGPRP | -0.0407 |
| RRIRIRPPRLPRPRPRPTNSPRP | -0.827 |
| RRIRWRPPRLPRPRPRPPWPPRP | 0.503 |
| RRIRWRPPRLPRPRPRPKPIPRP | 0.477 |
| RRIRHRPPRLPRPRPRPRIDPRP | -0.511 |
| RRIRARPPRLPRPRPRPTREPRP | 0.573 |
| RRIRQRPPRLPRPRPRPMKGPRP | 0.0391 |
| RRIRSRPPRLPRPRPRPWFFPRP | -0.197 |
| RRIRWRPPRLPRPRPRPTCNPRP | 0.0836 |
| RRIRMRPPRLPRPRPRPNDWPRP | 0.435 |
| RRIRPRPPRLPRPRPRPDNRPRP | 0.0191 |
| RRIRARPPRLPRPRPRPPPYPRP | 0.698 |
| RRIRMRPPRLPRPRPRPNAEPRP | -0.0356 |
| RRIRMRPPRLPRPRPRPMDYPRP | -0.00149 |
| RRIRTRPPRLPRPRPRPTEMPRP | 0.3 |
| RRIRMRPPRLPRPRPRPYEAPRP | 0.029 |

| Sequence | shrunken log2 fold change |
| --- | --- |
| RRIRDRPPRLPRPRPRPKHIPRP | -0.236 |
| RRIRWRPPRLPRPRPRPNDLPRP | 0.0302 |
| RRIRKRPPRLPRPRPRPGFKPRP | -0.0198 |
| RRIRARPPRLPRPRPRPYKFPRP | -0.279 |
| RRIRKRPPRLPRPRPRPTQCPRP | 0.567 |
| RRIRYRPPRLPRPRPRPSEFPRP | -0.218 |
| RRIRFRPPRLPRPRPRPHGLPRP | 0.0196 |
| RRIRMRPPRLPRPRPRPYGVPRP | -0.147 |
| RRIRLRPPRLPRPRPRPDLRPRP | -0.0717 |
| RRIRDRPPRLPRPRPRPRLEPRP | 0.387 |
| RRIRCRPPRLPRPRPRPTWWPRP | 0.294 |
| RRIRKRPPRLPRPRPRPDGGPRP | 0.157 |
| RRIRDRPPRLPRPRPRPEPEPRP | 0.579 |
| RRIRIRPPRLPRPRPRPQFMPRP | -0.831 |
| RRIRLRPPRLPRPRPRPMQNPRP | 0.141 |
| RRIRLRPPRLPRPRPRPWRHPRP | -0.0415 |
| RRIRCRPPRLPRPRPRPVRWPRP | 0.952 |
| RRIRERPPRLPRPRPRPWGRPRP | 0.268 |
| RRIRGRPPRLPRPRPRPIQMPRP | -0.027 |
| RRIRYRPPRLPRPRPRPHMQPRP | -1.07 |
| RRIRIRPPRLPRPRPRPATHPRP | -0.165 |
| RRIRMRPPRLPRPRPRPSVFPRP | -0.0403 |

| Sequence | shrunken log2 fold change |
| --- | --- |
| RRIRWRPPRLPRPRPRPDGCPRP | 0.0109 |
| RRIRYRPPRLPRPRPRPELIPRP | -0.363 |
| RRIRWRPPRLPRPRPRPLCIPRP | -0.275 |
| RRIRVRPPRLPRPRPRPPIRPRP | -0.0403 |
| RRIRRRPPRLPRPRPRPEREPRP | 0.297 |
| RRIRRRPPRLPRPRPRPFLMPRP | 0.0572 |
| RRIRNRPPRLPRPRPRPVATPRP | -0.0503 |
| RRIRVRPPRLPRPRPRPKWSPRP | 0.0979 |
| RRIRMRPPRLPRPRPRPTRAPRP | 1.42 |
| RRIRERPPRLPRPRPRPPYQPRP | -0.1 |
| RRIRNRPPRLPRPRPRPILPPRP | -0.297 |
| RRIRVRPPRLPRPRPRPWWQPRP | -0.201 |
| RRIRARPPRLPRPRPRPNTHPRP | -0.309 |
| RRIRVRPPRLPRPRPRPHNIPRP | -0.392 |
| RRIRVRPPRLPRPRPRPHGQPRP | -0.0326 |
| RRIRWRPPRLPRPRPRPMFAPRP | 0.216 |
| RRIRYRPPRLPRPRPRPTEIPRP | -0.41 |
| RRIRPRPPRLPRPRPRPVPYPRP | -0.253 |
| RRIRTRPPRLPRPRPRPHMIPRP | -0.138 |
| RRIRGRPPRLPRPRPRPLVWPRP | 0.952 |
| RRIRFRPPRLPRPRPRPYIMPRP | -1.09 |
